Source: patent US20040018971A1 (published 2004)

B1: HER2/neu peptide, position 706, 9 amino acids (peptide)
peptide: MPNQAQMRI
notes: T0001 prints N at residue 706; also called Her2/neu.706
B2: HER2/neu peptide, position 706, 10 amino acids (peptide)
peptide: MPNQAQMRIL
notes: as for B1
B3: HER2/neu peptide, position 701, 10 amino acids (peptide)
peptide: TPSGAMPNQA
notes: T0001 prints N at residue 706; also called Her2/neu.701

Tests used:
HLA-B*0702 [1] = target: T1, HLA-B*0702 (human); test: inhibition of 125I standard peptide binding to purified HLA
T1 construct: also called B7 supertype prototype molecule

HLA-B*0702 [2] = target: HLA-B*0702 (human); test: competition with 125I-labelled probe peptide for purified HLA, gel filtration

Row | Binder | relative binding ratio (HLA-B*0702 [1]) | relative binding ratio (HLA-B*0702 [2])
1 | SPYVSRLLGI (also called Her2/neu.779) [HER2/neu peptide, position 779, 10 amino acids] | 0.1 ratio to standard peptide | –
2 | QPHPPPAFSPA (also called Her2/neu.1206) [HER2/neu peptide, position 1206, 11 amino acids] | 0.0003 ratio to standard peptide | –
3 | VPLPSETDGYV (also called Her2/neu.1118) [HER2/neu peptide, position 1118, 11 amino acids] | -0.0002 ratio to standard peptide | –
4 | PPICTIDV (also called Her2/neu.944) [HER2/neu peptide, position 944, 8 amino acids] | -0.0006 ratio to standard peptide | –
5 | PPSTFKGTPTA (also called Her2/neu.1233) [HER2/neu peptide, position 1233, 11 amino acids] | -0.0003 ratio to standard peptide | –
6 | SPNHVKITDF (also called Her2/neu.855) [HER2/neu peptide, position 855, 10 amino acids] | 0.0016 ratio to standard peptide | –
7 | SPGGLREL (also called Her2/neu.133) [HER2/neu peptide, position 133, 8 amino acids] | 0.055 ratio to standard peptide | –
8 | WPDSLPDL (also called Her2/neu.415) [HER2/neu peptide, position 415, 8 amino acids] | 0.02 ratio to standard peptide | –
9 | PPAFSPAF (also called Her2/neu.1210) [HER2/neu peptide, position 1210, 8 amino acids] | -0.0002 ratio to standard peptide | –
10 | VPLPSETDGY (also called Her2/neu.1118) [HER2/neu peptide, position 1118, 10 amino acids] | 0.0001 ratio to standard peptide | –
11 | WPDSLPDLSV (also called Her2/neu.415) [HER2/neu peptide, position 415, 10 amino acids] | 0.0044 ratio to standard peptide | –
12 | SPGKNGVVKDV (also called Her2/neu.1174) [HER2/neu peptide, position 1174, 11 amino acids] | -0.0002 ratio to standard peptide | –
13 | PPGAASTQV (also called Her2/neu.17) [HER2/neu peptide, position 17, 9 amino acids] | 0.0001 ratio to standard peptide | –
14 | SPETHLDML (also called Her2/neu.38) [HER2/neu peptide, position 38, 9 amino acids] | 0.0005 ratio to standard peptide | –
15 | QPPSPREGPL (also called Her2/neu.1148) [HER2/neu peptide, position 1148, 10 amino acids] | 0.0014 ratio to standard peptide | –
16 | QPPICTIDV (also called Her2/neu.943) [HER2/neu peptide, position 943, 9 amino acids] | 0.0001 ratio to standard peptide | –
17 | SPLDSTFY (also called Her2/neu.998) [HER2/neu peptide, position 998, 8 amino acids] | -0.0006 ratio to standard peptide | –
18 | MPYGCLLDHV (also called Her2/neu.801) [HER2/neu peptide, position 801, 10 amino acids] | 0.0085 ratio to standard peptide | –
19 | APLQPEQLQV [HER2/neu peptide, position 390, 10 amino acids] | – | 0.0001 ratio (IC50 of standard / IC50 of test peptide)
20 | VPLQRLRI (also called Her2/neu.94) [HER2/neu peptide, position 94, 8 amino acids] | 0.002 ratio to standard peptide | –
21 | MPNPEGRYTF (also called Her2/neu.282) [HER2/neu peptide, position 282, 10 amino acids] | 0.0001 ratio to standard peptide | –
22 | PPSPREGPL (also called Her2/neu.1149) [HER2/neu peptide, position 1149, 9 amino acids] | 0.0054 ratio to standard peptide | –
23 | QPHPPPAF (also called Her2/neu.1206) [HER2/neu peptide, position 1206, 8 amino acids] | 0.0002 ratio to standard peptide | –
24 | SPYVSRLL (also called Her2/neu.779) [HER2/neu peptide, position 779, 8 amino acids] | 0.044 ratio to standard peptide | –
25 | SPREGPLPA (also called Her2/neu.1151) [HER2/neu peptide, position 1151, 9 amino acids] | 0.64 ratio to standard peptide | –

Row | Binder | relative binding ratio (HLA-B*0702 [1]) | relative binding ratio (HLA-B*0702 [2])
26 | SPAFDNLYYW (also called Her2/neu.1214) [HER2/neu peptide, position 1214, 10 amino acids] | 0.0001 ratio to standard peptide | –
27 | VPIKWMALESI (also called Her2/neu.884) [HER2/neu peptide, position 884, 11 amino acids] | 0.0017 ratio to standard peptide | –
28 | SPGGLRELQL (also called Her2/neu.133) [HER2/neu peptide, position 133, 10 amino acids] | 0.058 ratio to standard peptide | –
29 | PPICTIDVY (also called Her2/neu.944) [HER2/neu peptide, position 944, 9 amino acids] | 0.0001 ratio to standard peptide | –
30 | QPEQLQVF (also called Her2/neu.393) [HER2/neu peptide, position 393, 8 amino acids] | -0.0002 ratio to standard peptide | –
31 | B1 | 0.009 ratio to standard peptide | –
32 | SPAFDNLYY (also called Her2/neu.1214) [HER2/neu peptide, position 1214, 9 amino acids] | 0.0001 ratio to standard peptide | –
33 | QPPICTIDVY (also called Her2/neu.943) [HER2/neu peptide, position 943, 10 amino acids] | 0.0001 ratio to standard peptide | –
34 | APLQPEQL [HER2/neu peptide, position 390, 8 amino acids] | – | < 0.0006 ratio (IC50 of standard / IC50 of test peptide)
35 | B2 | 0.049 ratio to standard peptide | –
36 | NPEYLGLDV (also called Her2/neu.1245) [HER2/neu peptide, position 1245, 9 amino acids] | 0.0001 ratio to standard peptide | –
37 | SPLTSIISAVV (also called Her2/neu.649) [HER2/neu peptide, position 649, 11 amino acids] | 0.025 ratio to standard peptide | –
38 | NPEGRYTFGA (also called Her2/neu.284) [HER2/neu peptide, position 284, 10 amino acids] | 0.0001 ratio to standard peptide | –
39 | NPEYLGLDVPV (also called Her2/neu.1245) [HER2/neu peptide, position 1245, 11 amino acids] | -0.0002 ratio to standard peptide | –
40 | SPREGPLPAA (also called Her2/neu.1151) [HER2/neu peptide, position 1151, 10 amino acids] | 0.46 ratio to standard peptide | –
41 | QPEQLQVFETL (also called Her2/neu.393) [HER2/neu peptide, position 393, 11 amino acids] | -0.0002 ratio to standard peptide | –
42 | NPHQALLHTA (also called Her2/neu.488) [HER2/neu peptide, position 488, 10 amino acids] | 0.0005 ratio to standard peptide | –
43 | SPGKNGVV (also called Her2/neu.1174) [HER2/neu peptide, position 1174, 8 amino acids] | 0.023 ratio to standard peptide | –
44 | SPETHLDM (also called Her2/neu.38) [HER2/neu peptide, position 38, 8 amino acids] | 0.0014 ratio to standard peptide | –
45 | PPICTIDVYMI (also called Her2/neu.944) [HER2/neu peptide, position 944, 11 amino acids] | 0.0064 ratio to standard peptide | –
46 | PPPAFSPAF (also called Her2/neu.1209) [HER2/neu peptide, position 1209, 9 amino acids] | 0.0002 ratio to standard peptide | –
47 | QPQNGSVTCF (also called Her2/neu.568) [HER2/neu peptide, position 568, 10 amino acids] | 0.0004 ratio to standard peptide | –
48 | QPEYVNQPDV (also called Her2/neu.1136) [HER2/neu peptide, position 1136, 10 amino acids] | 0.0001 ratio to standard peptide | –
49 | PPPAFSPA (also called Her2/neu.1209) [HER2/neu peptide, position 1209, 8 amino acids] | -0.0002 ratio to standard peptide | –
50 | NPQLCYQDTI (also called Her2/neu.158) [HER2/neu peptide, position 158, 10 amino acids] | 0.0001 ratio to standard peptide | –

Row | Binder | relative binding ratio (HLA-B*0702 [1]) | relative binding ratio (HLA-B*0702 [2])
51 | PPERGAPPSTF (also called Her2/neu.1227) [HER2/neu peptide, position 1227, 11 amino acids] | -0.0003 ratio to standard peptide | –
52 | NPEYLTPQGGA (also called Her2/neu.1193) [HER2/neu peptide, position 1193, 11 amino acids] | -0.0003 ratio to standard peptide | –
53 | NPEGRYTF (also called Her2/neu.284) [HER2/neu peptide, position 284, 8 amino acids] | -0.0002 ratio to standard peptide | –
54 | TPVTGASPGGL (also called Her2/neu.127) [HER2/neu peptide, position 127, 11 amino acids] | -0.0002 ratio to standard peptide | –
55 | SPLDSTFYRSL (also called Her2/neu.998) [HER2/neu peptide, position 998, 11 amino acids] | 0.064 ratio to standard peptide | –
56 | PPAFSPAFDNL (also called Her2/neu.1210) [HER2/neu peptide, position 1210, 11 amino acids] | -0.0002 ratio to standard peptide | –
57 | SPKANKEIL (also called Her2/neu.760) [HER2/neu peptide, position 760, 9 amino acids] | 0.12 ratio to standard peptide | –
58 | SPLAPSEGA (also called Her2/neu.1073) [HER2/neu peptide, position 1073, 9 amino acids] | 0.003 ratio to standard peptide | –
59 | RPRFRELVSEF (also called Her2/neu.966) [HER2/neu peptide, position 966, 11 amino acids] | 1.3 ratio to standard peptide | –
60 | B3 | 0.0001 ratio to standard peptide | –
61 | TPTAENPEYL (also called Her2/neu.1240) [HER2/neu peptide, position 1240, 10 amino acids] | 0.0002 ratio to standard peptide | –
62 | QPPICTIDVYM (also called Her2/neu.943) [HER2/neu peptide, position 943, 11 amino acids] | 0.002 ratio to standard peptide | –
63 | RPEDECVGEGL (also called Her2/neu.499) [HER2/neu peptide, position 499, 11 amino acids] | -0.0002 ratio to standard peptide | –
64 | SPAFDNLY (also called Her2/neu.1214) [HER2/neu peptide, position 1214, 8 amino acids] | -0.0002 ratio to standard peptide | –
65 | RPRFRELV (also called Her2/neu.966) [HER2/neu peptide, position 966, 8 amino acids] | 0.041 ratio to standard peptide | –
66 | SPLTSIISAV (also called Her2/neu.649) [HER2/neu peptide, position 649, 10 amino acids] | 0.09 ratio to standard peptide | –
67 | PPICTIDVYM (also called Her2/neu.944) [HER2/neu peptide, position 944, 10 amino acids] | 0.0004 ratio to standard peptide | –
68 | APGAGGMV [HER2/neu peptide, position 1036, 8 amino acids] | – | 0.0063 ratio (IC50 of standard / IC50 of test peptide)
69 | VPIKWMAL (also called Her2/neu.884) [HER2/neu peptide, position 884, 8 amino acids] | 1.4 ratio to standard peptide | –
70 | VPLQRLRIV (also called Her2/neu.94) [HER2/neu peptide, position 94, 9 amino acids] | 0.0077 ratio to standard peptide | –
71 | SPKANKEI (also called Her2/neu.760) [HER2/neu peptide, position 760, 8 amino acids] | 0.058 ratio to standard peptide | –
72 | SPLTSIISA (also called Her2/neu.649) [HER2/neu peptide, position 649, 9 amino acids] | 0.015 ratio to standard peptide | –
73 | NPQLCYQDTIL (also called Her2/neu.158) [HER2/neu peptide, position 158, 11 amino acids] | -0.0002 ratio to standard peptide | –
74 | SPMCKGSRCW (also called Her2/neu.196) [HER2/neu peptide, position 196, 10 amino acids] | 0.0021 ratio to standard peptide | –
